Assays:
[1] = biological target: HLA-A*01:01; test: IEDB peptide-MHC binding, purified MHC/direct/fluorescence; filed as Kd, often an IC50 or EC50 that approximates it; ≥ and ≤ were set here for values at or beyond the usual limits of such assays
[2] = biological target: HLA-A*02:01; test: as above
[3] = biological target: HLA-A*03:01; test: as above
[4] = biological target: HLA-A*11:01; test: as above
[5] = biological target: HLA-A*24:02; test: as above
[6] = biological target: HLA-A*31:01; test: as above
[7] = biological target: HLA-A*69:01; test: as above
[8] = biological target: HLA-B*07:02; test: as above
[9] = biological target: HLA-B*15:01; test: as above
[10] = biological target: HLA-B*18:01; test: as above
[11] = biological target: HLA-B*27:05; test: as above
[12] = biological target: HLA-B*40:01; test: as above
[13] = biological target: HLA-B*44:02; test: as above
[14] = biological target: HLA-B*58:01; test: as above
[15] = biological target: HLA-A*02:50; test: IEDB peptide-MHC binding, purified MHC/competitive/fluorescence; filed as Kd, often an IC50 or EC50 that approximates it; ≥ and ≤ were set here for values at or beyond the usual limits of such assays; conditions: source organism: Shigella boydii CDC 3083-94
[16] = biological target: HLA-A*26:01; test: IEDB peptide-MHC binding, purified MHC/direct/fluorescence; filed as Kd, often an IC50 or EC50 that approximates it; ≥ and ≤ were set here for values at or beyond the usual limits of such assays
[17] = biological target: HLA-B*15:09; test: as above; conditions: source organism: Vibrio vulnificus YJ016
[18] = biological target: HLA-B*15:17; test: as above; conditions: source organism: Vibrio vulnificus YJ016
[19] = biological target: HLA-B*38:01; test: as above; conditions: source organism: Vibrio vulnificus YJ016
[20] = biological target: HLA-B*46:01; test: as above
[21] = biological target: HLA-B*48:01; test: as above; conditions: source organism: Vibrio vulnificus YJ016
[22] = biological target: HLA-B*57:01; test: as above
[23] = biological target: HLA-A*02:01; test: IEDB peptide-MHC binding, purified MHC/competitive/fluorescence; filed as Kd, often an IC50 or EC50 that approximates it; ≥ and ≤ were set here for values at or beyond the usual limits of such assays; conditions: source organism: Vibrio vulnificus YJ016
[24] = biological target: HLA-A*02:06; test: as above
[25] = biological target: HLA-A*30:01; test: as above; conditions: source organism: Vibrio vulnificus YJ016
[26] = biological target: HLA-A*69:01; test: as above; conditions: source organism: Vibrio vulnificus YJ016
[27] = biological target: HLA-B*08:01; test: as above; conditions: source organism: Vibrio vulnificus YJ016
[28] = biological target: HLA-B*18:01; test: as above; conditions: source organism: Vibrio vulnificus YJ016
[29] = biological target: HLA-B*39:01; test: as above; conditions: source organism: Vibrio vulnificus YJ016
[30] = biological target: HLA-A*02:11; test: IEDB peptide-MHC binding, purified MHC/direct/fluorescence; filed as Kd, often an IC50 or EC50 that approximates it; ≥ and ≤ were set here for values at or beyond the usual limits of such assays; conditions: source organism: Amur virus Solovey/AP63/1999
[31] = biological target: HLA-A*02:12; test: as above; conditions: source organism: Amur virus Solovey/AP63/1999
[32] = biological target: HLA-C*07:02; test: as above; conditions: source organism: Hantaan virus 76-118
[33] = biological target: HLA-A*80:01; test: as above
[34] = biological target: HLA-B*08:01; test: as above
[35] = biological target: HLA-B*08:02; test: as above; conditions: source organism: Influenza A virus H3N2
[36] = biological target: HLA-A*24:03; test: as above; conditions: source organism: Influenza A virus (A/Hong Kong/516/97(H5N1))
[37] = biological target: HLA-A*68:02; test: as above; conditions: source organism: Influenza A virus (A/Hong Kong/516/97(H5N1))
[38] = biological target: HLA-A*26:02; test: IEDB peptide-MHC binding, purified MHC/competitive/fluorescence; filed as Kd, often an IC50 or EC50 that approximates it; ≥ and ≤ were set here for values at or beyond the usual limits of such assays; conditions: source organism: Influenza A virus (A/Fort Monmouth/1/1947-mouse adapted(H1N1))
[39] = biological target: HLA-B*15:17; test: as above; conditions: source organism: Influenza A virus (A/Fort Monmouth/1/1947-mouse adapted(H1N1))
[40] = biological target: HLA-C*04:01; test: IEDB peptide-MHC binding, purified MHC/direct/fluorescence; filed as Kd, often an IC50 or EC50 that approximates it; ≥ and ≤ were set here for values at or beyond the usual limits of such assays
[41] = biological target: HLA-A*24:02; test: IEDB peptide-MHC binding, purified MHC/competitive/fluorescence; filed as Kd, often an IC50 or EC50 that approximates it; ≥ and ≤ were set here for values at or beyond the usual limits of such assays; conditions: source organism: Shigella flexneri 5 str. 8401
[42] = source organism: Escherichia coli O157:H7
[43] = source organism: Vibrio vulnificus YJ016
[44] = source organism: Francisella tularensis subsp. holarctica LVS
[45] = source organism: Influenza A virus (A/Switzerland/8808/2002(H1N1))
[46] = source organism: Influenza A virus (A/Puerto Rico/8/34/Mount Sinai(H1N1))
[47] = source organism: Influenza A virus (A/Hong Kong/516/97(H5N1))
[48] = source organism: Burkholderia mallei

With GMAEDLQSL the Kd [1, 42] was ≥ 20 µM, the Kd [2, 42] was 0.0657 µM and the Kd [3, 42] was ≥ 20 µM. The Kd [4, 42] was ≥ 20 µM, the Kd [5, 42] was ≥ 20 µM and the Kd [6, 42] was ≥ 20 µM. For the same sequence, the Kd [7, 42] was 1 µM, the Kd [8, 42] was ≥ 20 µM and the Kd [9, 42] was 0.39 µM. For the same sequence, the Kd [10, 42] was ≥ 20 µM, the Kd [11, 42] was ≥ 20 µM and the Kd [12, 42] was ≥ 20 µM. For the same sequence, the Kd [13, 42] was ≥ 20 µM, the Kd [14, 42] was ≥ 20 µM and the Kd [15] was ≤ 0.0001 µM.
With EPADHLAIM the Kd [1, 43] was ≥ 20 µM, the Kd [3, 43] was ≥ 20 µM and the Kd [4, 43] was ≥ 20 µM. The Kd [16, 43] was 0.047 µM, the Kd [6, 43] was ≥ 20 µM and the Kd [9, 43] was ≥ 20 µM. The Kd [17] was ≥ 20 µM, the Kd [18] was ≥ 20 µM and the Kd [11, 43] was ≥ 20 µM. For the same sequence, the Kd [19] was ≥ 20 µM, the Kd [12, 43] was ≥ 20 µM and the Kd [20, 43] was ≥ 20 µM. The Kd [21] was ≥ 20 µM, the Kd [22, 43] was ≥ 20 µM and the Kd [14, 43] was ≥ 20 µM. The Kd [23] was 0.691 µM, the Kd [24, 43] was ≥ 20 µM and the Kd [25] was ≥ 20 µM. For the same sequence, the Kd [26] was ≥ 20 µM, the Kd [27] was ≥ 20 µM and the Kd [28] was 3 µM. The Kd [29] was 1.21 µM.
In the case of SMLSYGNVL, the Kd ([2]; source organism: Amur virus) is reported as ≤ 0.001 µM, the Kd [30] is reported as 0.003 µM and the Kd [31] is reported as 0.075 µM. It also gave a Kd [32] of 0.614 µM.
LTDKSGSEY was tested, and the Kd [1, 44] was 0.0012 µM and the Kd [33, 44] was 0.29 µM.
With VPAQNAIST the Kd [1, 45] was ≥ 20 µM, the Kd [2, 45] was ≥ 20 µM and the Kd [3, 45] was ≥ 20 µM. For the same sequence, the Kd [4, 45] was ≥ 20 µM, the Kd [5, 45] was ≥ 20 µM and the Kd ([16]; source organism: Influenza A virus H3N2) was ≥ 20 µM. For the same sequence, the Kd [6, 45] was ≥ 20 µM, the Kd [7, 45] was ≥ 20 µM and the Kd [8, 46] was 0.063 µM. The Kd [34, 45] was ≥ 20 µM, the Kd [35] was ≥ 20 µM and the Kd [9, 45] was ≥ 20 µM. For the same sequence, the Kd [10, 45] was ≥ 20 µM, the Kd [11, 45] was ≥ 20 µM and the Kd [12, 45] was ≥ 20 µM. For the same sequence, the Kd [20, 45] was ≥ 20 µM and the Kd [14, 45] was ≥ 20 µM.
In the case of SYINRTGTF, the Kd [1, 47] is reported as ≥ 20 µM, the Kd [2, 47] is reported as ≥ 20 µM and the Kd [3, 47] is reported as ≥ 20 µM. The Kd [4, 47] was ≥ 20 µM, the Kd [5, 47] was 0.0054 µM and the Kd [36] was 0.0018 µM. The Kd [16, 47] was ≥ 20 µM, the Kd [6, 47] was ≥ 20 µM and the Kd [37] was ≥ 20 µM. The Kd [7, 47] was ≥ 20 µM, the Kd [8, 47] was ≥ 20 µM and the Kd [34, 47] was ≥ 20 µM. The Kd [9, 46] was 0.584 µM, the Kd [10, 47] was ≥ 20 µM and the Kd [11, 47] was ≥ 20 µM. For the same sequence, the Kd [12, 47] was ≥ 20 µM, the Kd [13, 47] was ≥ 20 µM and the Kd [22, 47] was ≥ 20 µM. For the same sequence, the Kd [14, 47] was ≥ 20 µM, the Kd ([24]; source organism: Influenza A virus (A/Fort Monmouth/1/1947-mouse adapted(H1N1))) was ≥ 20 µM and the Kd [38] was 3.67 µM. For the same sequence, the Kd [39] was 0.477 µM.
With STEFIPNLF the Kd ([40]; source organism: human gammaherpesvirus 4) was ≥ 20 µM.
With ALRRRTGTR the Kd [1, 48] was ≥ 20 µM and the Kd [33, 48] was ≥ 20 µM.
In the case of VSITNPFLF, the Kd ([40]; source organism: Shigella flexneri 5 str. 8401) is reported as ≥ 20 µM and the Kd [41] is reported as 0.0057 µM.

Source: the Immune Epitope Database (IEDB)
